Data: patent publication US11479601B2, “Antibodies specific to Sonic Hedgehog and method of use thereof” (The Regents of the University of California, priority 2016, dated 2022)

Tests used:
Shh = assay: Western blot binding to purified and cell-expressed Shh; set-up: species or system human; details: purified Shh and Shh expressed endogenously and/or exogenously in cells
Source text: FIGS. 15A and 15B. Antibodies bind target SHh via Western blot. (FIG. 15A) Purified, recombinant human Shh (19.7 kDa, >98% purity by SDS-PAGE) was probed by the indicated antibodies. (FIG. 15B) Cell lysates from HEK-293T cells (PHX—Phoenix cells), with or without exogenous expression of full-length Shh, and A549 cells were probed with the antibodies produced by clones 2G4 and 2D9. Full-length Shh: ˜50 kDa; N-terminal Shh: ˜19 kDa; C-terminal Shh: ˜25 kDa. Sample 2 was lysate from PHX cells transfected with full-length Shh DNA for about 24 hours. The exogenously expressed Shh appears to be cleaved into N-terminal and C-terminal Shh peptides. Both PHX cells and A549 cells endogenously express Shh.

[1] = system: Shh 247-264 AA and Shh 448-462 AA peptides; assay: Biolayer interferometry (Octet RED 384) with Shh peptide-mimic ligands; format: binding, human; details: 37-3000 nM peptides; versus IgG control antibody
Protocol: Antibody immobilization was checked via Octet® Software (ForteBio) prior to introduction of increasing concentrations (37, 111, 333, 1000, 3000 nM) of Sonic Hedgehog peptide-mimic ligands (Shh 247-264 AA and Shh 448-462 AA). Graphical output from the Octet® Software of representative data from two independent experiments is presented.

NSCLC A549 cells = assay: CellTiter-Glo cell viability assay, A549; format: cell-based, human; details: 96 hours, compared with controls
Protocol: Logarithmically growing cells were plated in antibiotic-free medium supplemented with 2% fetal bovine serum at a density of 5,000 cells per well in clear-bottom 96-well plates. The next day cells were treated (triplicates) with increasing doses of in-house therapeutic antibodies (reconstituted in PBS) or PBS controls for 96 hours and subsequently assessed for cell viability by measuring ATP content with CellTiter-Glo Luminescent Cell Viability Assay (Promega). Signal intensity was measured on a Glomax™ 96 Microplate Luminometer (Promega) and percent cell survival was calculated based on the reading of PBS control cells set as 100%.

GLI = assay: Ex vivo GLI expression in excised A549 xenograft tumors; set-up: species or system mice; details: tumors after 8 mg/kg treatment, versus IgG controls
Protocol: The in vivo effect of the C-terminal Shh antibodies were tested using the A549 cell subcutaneous xenograft tumor model in mice, as described in Example 1. After xenograft formation, animals were intra-tumor injected with a C terminal Shh antibody (2G4 or 2D9; each at 158 μg), or a control solution, 3 times a week for about 3 weeks (at 2-3 day intervals). Tumor volume was determined, as described in Example 1, every 2 days. Weight and size of the excised tumor were determined after the antibody treatment. […]
Total protein from whole-cell lysates was prepared with M-PER buffer (ThermoFisher Scientific) and from frozen tissues with T-PER (ThermoFisher Scientific) supplemented with protease and phosphatase inhibitors (Roche). Subsequently protein concentrations were determined via a Bradford assay. Equal quantities of proteins were combined with 5× protein loading buffer and separated by SDS-PAGE followed by PVDF membrane transfer. […]
Antibody-treated tumors were harvested to extract total RNA using Trizol (Invitrogen) and cDNA was synthesized using reverse transcriptase from iScript's cDNA Synthesis Kit (Bio-Rad). Real-time quantitative reverse transcript-polymerase chain reaction (qRT-PCR) was performed with TaqMan® Universal PCR Master Mix (Life Technologies) using gene specific PCR primers for human […] (Life Technologies). […]

- binding response to Shh peptide-mimic ligands (BLI) [1]: increases in binding response
B1: 2G4: purified mouse monoclonal C-terminal Shh antibody from hybridoma sub-clone 2G4 of clone 1C11, IgG1 kappa (antibody, V domains shown)
VH: EVKLVESGGGLVKPGGSLKLSCAASGFTFSSYTMSWVRQTPAKRLEWVATISSGGGNTYYPDSVKGRFTISRDNARNTLYLQMSSLRSEDTAMYYCARDYRSLFAYWGQGTLVTVSA
VL: QIVLTQSPAIMSASPGEKVTITCSASSSVSYMHWFQQKPGTSPKLWIYSTSNLASGVPARFSGSGSGTSYSLTISRMEAEDAATYYCQQRSSYPFTFGSGTKLEIK
- binding to Shh by Western blot (Shh): bound to purified Shh
- A549 tumor cell proliferation / cell viability (NSCLC A549 cells): marginally stronger anti-proliferative capacity
- GLI transcripts (qRT-PCR) and GLI polypeptide expression (Western blot) in tumors (GLI): significant reduction in GLI transcripts
